Measurements from article PMC8357241.

Test system: PARP1
Experiment: fluorescence polarization
Settings: EMSA: 20 mM Hepes pH 7.8, 150 mM NaCl, 2 mM MgCl2, 0.5 mM TCEP, 0.05 mg/ml BSA; TIRF same salts with 1 mg/ml BSA, 1 mg/ml beta-casein, 500 nM SYTOX Orange …

## DNA dumbbell containing a SSB
  Kd: 71 nM
